Where a chain is given by its changes, count along the chain named.
B1: COVID19_P07_G06 (scFv, V domains shown)
VH: EVQLVESGGGLVQPGGSLRLSCAASGFTFSSYAMHWVRQAPGKGLEWVSAIGAGGGTYYADSVKGRFTISRDNSKNTLYLQMNSLRAEDTAVYYCVTNLDNSRDYFPHYFHDMDVWGQGTLVTVSS
VL: DIVMTQSPLSLPVTPGEPASISCRSSQSLLHSNGYNYLDWYLQKPGQSPQLLIYGASTRATGVPDRFSGSGSGTDFTLKISRVEAEDVGVYYCMQTLQTPRFGGGTKVEIKR
B2: COVID19_P19_C08 (scFv, V domains shown)
VH: EVQLVESGGGLVQPGGSLRLSCAASGFTFSSYAMHWVRQAPGKGLEWVSAISASSAGAYYADSVKGRFTISRDNSKNTLYLQMNSLRAEDTAVYYCVTNMDNSRDYFPHYFHDMDVWGQGTLVTVSS
VL: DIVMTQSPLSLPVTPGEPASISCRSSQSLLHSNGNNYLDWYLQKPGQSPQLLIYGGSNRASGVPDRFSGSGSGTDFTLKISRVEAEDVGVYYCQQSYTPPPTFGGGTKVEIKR
B3: COVID19_P19_F02 (scFv, V domains shown)
VH: B2 VH with A33G, I51Y, A53G, S55G, A56G, G57Y, A58T, Y60F
VL: DIVMTQSPLSLPVTPGEPASISCKSSQSLLHINGFNYLDWFLQKPGQSPQLLIYLGSNRAPGVPDRFSGSGSGTDFTLKISRVEAEDVGVYYCQQSLQNPRTFGGGTKVEIKR
B4: COVID19_P08_D04 (scFv, V domains shown)
VH: B2 VH with T28I, H35N, A50G, A53G, S55G, A56G, M100L
VL: DIVMTQSPLSLPVTPGEPASISCRSSQSLLQSNGYNYMDWYLQKPGQSPQLLIYLTSNRAAGVPDRFSGSGSGTDFTLKISRVEAEDVGVYYCQQSYGPPLTFGGGTKVEIKR
B5: COVID19_P20_A11 (scFv, V domains shown)
VH: B2 VH with A53G, S55G, A56D, G57N, A58T
VL: not shown
B6: COVID19_P08_G02 (scFv, V domains shown)
VH: B2 VH with A33G, V37I, I51V, S55G, A56D, G57R, A58T, Y59H, M100L
VL: DIVMTQSPLSLPVTPGEPASISCRSSQSLVHSDGYTYLNWYLQKPGQSPQLLIYVGSYRASGVPDRFSGSGSGTDFTLKISRVEAEDVGVYYCMQASQWPPTFGGGTKVEIKR
B7: COVID19_P07_F10 (scFv, V domains shown)
VH: B2 VH with A33G, A50G, I51V, S55G, A56G, A58P
VL: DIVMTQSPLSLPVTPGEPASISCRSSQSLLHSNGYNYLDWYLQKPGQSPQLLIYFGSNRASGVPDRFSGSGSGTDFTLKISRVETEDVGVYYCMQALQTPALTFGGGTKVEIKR
B8: COVID19_P07_F01 (scFv, V domains shown)
VH: B2 VH with I51V, S52G, A53D, S55G, A56R, G57S, A58T, M100L
VL: not shown

The binders below were run against MERS Receptor Binding Domain (RBD) protein (MERS coronavirus, UniProt K9N5Q8 367-606) (assay: SPR, scFv captured via anti-V5, RBD as analyte).
B1: no binding (tested: up to 300 nM). B2: no binding (tested: up to 300 nM). B3: no binding (tested: up to 300 nM). B4: no binding (tested: up to 300 nM). B5: no binding (tested: up to 300 nM). B6: no binding (tested: up to 300 nM). B7: no binding (tested: up to 300 nM). B8: no binding (tested: up to 300 nM).

These binders were tested against T1, SARS-CoV-2 Receptor Binding Domain (RBD) protein (SARS-CoV-2, UniProt P0DTC2 319-541) (assay: SPR, scFv captured via anti-V5, RBD as analyte).
For B1, the Kd was < 50 nM. For B2, the Kd was < 50 nM. With B3 the Kd was < 50 nM. In the case of B4, the Kd is reported as < 50 nM. For B5, the Kd was < 50 nM. For B6, the Kd was < 50 nM. For B7, the Kd was < 50 nM. With B8 the Kd was < 50 nM.

These binders were tested against SARS-CoV-1 Receptor Binding Domain (RBD) protein (SARS-CoV-1, UniProt P59594 306-527) (assay: SPR, scFv captured via anti-V5, RBD as analyte).
B1: no binding (tested: up to 300 nM). B2: no binding (tested: up to 300 nM). B3: no binding (tested: up to 300 nM). B4: no binding (tested: up to 300 nM). B5: no binding (tested: up to 300 nM). B6: no binding (tested: up to 300 nM). B7: no binding (tested: up to 300 nM). B8: no binding (tested: up to 300 nM).

Target: T1, SARS-CoV-2 Receptor Binding Domain …
Assay: SPR, scFv captured via anti-V5, RBD as analyte
Remark: another data set of the same source
B1 was tested, and the Kd was 1.6 nM, the koff was 5.7e-05 s⁻¹ and the kon was 36300 M⁻¹ s⁻¹. Binder B2 has a Kd of 27.6 nM, a koff of 0.0047 s⁻¹ and a kon of 170000 M⁻¹ s⁻¹. B3 showed a Kd of 36.1 nM, a koff of 0.00384 s⁻¹ and a kon of 106000 M⁻¹ s⁻¹. For B4, the Kd was 0.86 nM, the koff was 5.7e-05 s⁻¹ and the kon was 66000 M⁻¹ s⁻¹. B5 showed a Kd of 20.2 nM, a koff of 0.000872 s⁻¹ and a kon of 43100 M⁻¹ s⁻¹. Work on B6 yielded a Kd of 2.71 nM, a koff of 0.0001 s⁻¹ and a kon of 38000 M⁻¹ s⁻¹. Binder B7 has a Kd of 8.05 nM, a koff of 0.000483 s⁻¹ and a kon of 60000 M⁻¹ s⁻¹. In the case of B8, the Kd is reported as 0.8 nM, the koff is reported as 5.7e-05 s⁻¹ and the kon is reported as 68000 M⁻¹ s⁻¹.
